In patent publication US20250163181A1 (SAINT LOUIS UNIVERSITY, published 2025):

Columns and labels:
[1] = target: T1, prothrombin variant S91A/Y93A (human, UniProt P00734 44-622, S91A; Y93A); assay: SPR, POmAb immobilised
T1 construct: range 1-579; Recombinant, expressed in Expi293 cells in the presence of vitamin K. Positions 91 and 93 count on the mature protein; also called ProTS91A/Y93A

[2] = target: T2, kringle-1 of human prothrombin (amino acids 44-155) (human, UniProt P00734 87-198); assay: SPR, calculated from Kd
T2 construct: Numbers count on the mature protein

[3] = target: T3, human prothrombin wild-type (human, UniProt P00734 44-622); assay: SPR, calculated from Kd
T3 construct: range 1-579; Residue numbers count on the mature protein, not on the precursor entry; In some runs 200 uM argatroban was added to force the open form; also called coagulation factor II; PT

[4] = target: T2, kringle-1 of human prothrombin (amino …); assay: SPR, second set, calculated from Kd
[5] = target: T3, human prothrombin wild-type; assay: SPR, second set, calculated from Kd
[6] = target: T1, prothrombin variant S91A/Y93A; assay: SPR, second set, calculated from Kd
[7] = target: T2, kringle-1 of human prothrombin (amino …); assay: ELISA, antigen immobilised, Hill fit
[8] = target: T3, human prothrombin wild-type; assay: ELISA, antigen immobilised, Hill fit
[9] = target: T1, prothrombin variant S91A/Y93A; assay: ELISA, antigen immobilised, Hill fit
[10] = target: T2, kringle-1 of human prothrombin (amino …); assay: SPR, POmAb immobilised on CM5, 1:1 model, 25 C
[11] = target: T3, human prothrombin wild-type; assay: SPR, POmAb immobilised on CM5, 1:1 model, 25 C
[12] = target: T2, kringle-1 of human prothrombin (amino …); assay: SPR, POmAb immobilised, second set, HEPES buffer, 25 C
[13] = target: T3, human prothrombin wild-type; assay: as above
[14] = target: T1, prothrombin variant S91A/Y93A; assay: as above
[15] = target: T3, human prothrombin wild-type; assay: SPR, calculated from Kd; prothrombin with 200 µM argatroban
[16] = target: T3, human prothrombin wild-type; assay: SPR, second set, calculated from Kd; prothrombin with argatroban
[17] = target: T3, human prothrombin wild-type; assay: SPR, POmAb immobilised; prothrombin with 200 µM argatroban (open form)
[18] = target: T1, prothrombin variant S91A/Y93A; assay: SPR, calculated from Kd; SPR, first set, Tris pH 7.4; ΔG calculated from Kd
[19] = target: T3, human prothrombin wild-type; assay: SPR, POmAb immobilised, second set; prothrombin with argatroban (open form)
[20] = target: T4, kringle-2 of human prothrombin (amino acids 156-271) (human, UniProt P00734 199-314); assay: ELISA, antigen coated on the plate, POmAb detected with anti-mouse IgG (gamma)-HRP and TMB, OD at 450 nm [panel C]
T4 construct: range 156-271; Numbers count on the mature protein

plasminogen = plasminogen (UniProt P00747 20-810, limits assumed); assay: as above
[21] = target: tissue plasminogen activator (UniProt P00750 36-562); assay: as above
factor XII = target: T5, factor XII (UniProt P00748 20-615); assay: as above
T5 construct: also called FXII
T5 sequence (looked up): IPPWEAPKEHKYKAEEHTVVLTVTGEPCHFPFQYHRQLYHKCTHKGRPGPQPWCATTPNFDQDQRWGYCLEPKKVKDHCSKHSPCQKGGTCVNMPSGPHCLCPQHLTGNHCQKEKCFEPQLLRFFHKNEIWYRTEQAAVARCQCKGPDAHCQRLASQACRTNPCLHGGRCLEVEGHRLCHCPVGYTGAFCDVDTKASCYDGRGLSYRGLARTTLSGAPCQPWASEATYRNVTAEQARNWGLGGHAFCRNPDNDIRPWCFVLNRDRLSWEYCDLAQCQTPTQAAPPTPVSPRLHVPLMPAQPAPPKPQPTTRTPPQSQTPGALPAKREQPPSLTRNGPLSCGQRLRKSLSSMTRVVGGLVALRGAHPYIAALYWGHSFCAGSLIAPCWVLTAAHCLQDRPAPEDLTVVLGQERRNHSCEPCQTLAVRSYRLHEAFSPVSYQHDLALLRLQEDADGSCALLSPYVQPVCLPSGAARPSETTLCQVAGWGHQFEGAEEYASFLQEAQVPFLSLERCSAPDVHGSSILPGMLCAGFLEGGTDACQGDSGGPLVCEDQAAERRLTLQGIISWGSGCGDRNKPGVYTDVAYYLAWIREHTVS

β2-glycoprotein I = target: T6, β2-glycoprotein I (UniProt P02749 20-345); assay: as above
T6 construct: also called B2-glycoprotein I; β2GPI
T6 sequence (looked up): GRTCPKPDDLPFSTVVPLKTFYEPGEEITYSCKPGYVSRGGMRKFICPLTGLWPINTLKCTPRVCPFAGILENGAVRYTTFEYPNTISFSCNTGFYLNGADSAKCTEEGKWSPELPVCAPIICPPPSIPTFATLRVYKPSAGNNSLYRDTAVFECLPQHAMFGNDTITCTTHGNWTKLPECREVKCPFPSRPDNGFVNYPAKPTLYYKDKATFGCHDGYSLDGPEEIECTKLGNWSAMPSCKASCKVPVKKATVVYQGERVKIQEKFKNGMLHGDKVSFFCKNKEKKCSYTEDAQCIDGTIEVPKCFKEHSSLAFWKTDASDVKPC

[22] = target: T1, prothrombin variant S91A/Y93A; assay: SPR, POmAb immobilised on CM5, 1:1 model, 25 C; SPR, first set, 20 mM Tris pH 7.4, 25 C: weak binding with fast dissociation
[23] = target: T1, prothrombin variant S91A/Y93A; assay: SPR, POmAb immobilised, second set, HEPES buffer, 25 C; SPR, second set, 20 mM HEPES pH 7.4, 25 C: weak binding with fast dissociation
[24] = target: T4, kringle-2 of human prothrombin (amino …); assay: ELISA, immobilised antigen, 5B10 titrated, OD at 450 nm [panel B]

Sequence of plasminogen (P00747 20-810 limits assumed): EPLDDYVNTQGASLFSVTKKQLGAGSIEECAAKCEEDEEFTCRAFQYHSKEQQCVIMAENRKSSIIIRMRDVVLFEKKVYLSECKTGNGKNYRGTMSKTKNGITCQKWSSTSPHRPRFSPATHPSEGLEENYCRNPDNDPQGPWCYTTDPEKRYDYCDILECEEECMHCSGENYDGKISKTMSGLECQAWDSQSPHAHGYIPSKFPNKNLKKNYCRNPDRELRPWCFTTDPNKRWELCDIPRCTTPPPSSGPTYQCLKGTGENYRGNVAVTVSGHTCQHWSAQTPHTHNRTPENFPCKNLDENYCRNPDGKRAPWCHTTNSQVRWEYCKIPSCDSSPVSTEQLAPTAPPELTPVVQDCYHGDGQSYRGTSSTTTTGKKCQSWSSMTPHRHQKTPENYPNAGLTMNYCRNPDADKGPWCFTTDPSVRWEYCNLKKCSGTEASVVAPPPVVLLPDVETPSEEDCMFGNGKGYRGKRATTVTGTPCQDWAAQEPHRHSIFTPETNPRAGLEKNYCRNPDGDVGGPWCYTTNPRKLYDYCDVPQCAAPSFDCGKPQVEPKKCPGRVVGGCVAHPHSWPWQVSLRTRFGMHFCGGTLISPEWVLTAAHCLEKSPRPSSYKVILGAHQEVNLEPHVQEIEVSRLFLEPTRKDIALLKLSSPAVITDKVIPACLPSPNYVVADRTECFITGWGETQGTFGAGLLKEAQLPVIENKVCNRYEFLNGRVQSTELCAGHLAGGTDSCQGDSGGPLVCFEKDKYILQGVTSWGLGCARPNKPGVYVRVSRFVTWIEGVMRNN
Sequence of tissue plasminogen activator (P00750 36-562): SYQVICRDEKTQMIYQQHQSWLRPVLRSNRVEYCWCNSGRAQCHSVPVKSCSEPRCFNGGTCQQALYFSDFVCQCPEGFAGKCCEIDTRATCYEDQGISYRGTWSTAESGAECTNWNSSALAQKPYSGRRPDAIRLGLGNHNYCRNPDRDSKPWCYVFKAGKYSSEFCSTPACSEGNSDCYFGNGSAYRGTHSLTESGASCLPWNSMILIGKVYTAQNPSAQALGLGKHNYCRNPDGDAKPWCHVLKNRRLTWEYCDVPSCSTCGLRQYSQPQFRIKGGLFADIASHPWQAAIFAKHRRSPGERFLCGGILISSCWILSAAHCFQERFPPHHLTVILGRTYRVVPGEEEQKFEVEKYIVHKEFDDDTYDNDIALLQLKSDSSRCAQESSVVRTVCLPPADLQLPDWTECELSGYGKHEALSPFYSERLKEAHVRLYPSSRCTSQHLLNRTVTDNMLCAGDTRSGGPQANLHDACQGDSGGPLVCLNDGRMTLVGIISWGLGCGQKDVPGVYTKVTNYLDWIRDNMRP

B1: POmAb (Prothrombin Open monoclonal Antibody) (antibody, mouse IgG1, kappa, V domains shown)
VH: EVHLVESGGGLVKPGGSLKLSCAASGFTFSSYYMYWVRQTPEKRLEWVATISNGGIYTYYLDSVRGRFTISRDNAKNILYLQMSGLSSADSAIYYCTRDGERQGAMDYWGQGTSVTVSS
VL: QIVLTQSPAIMSVSLGERVTMTCIVSSSVSSTYLHWYQQKPGSSPKLWIYSSSNLASGVPTRFSGSGSGTSHSLTISSMEAEDAAAYYCQLYRRSPLTFGAGTKLELKR
notes: also called POmAb IgG; IgG POmAb
In the case of B1, the “fold change of dissociation rate against wild-type prothrombin” value [1] is reported as roughly 1000 fold, the ΔG [2] is reported as -48.1 kJ/mol and the ΔG [3] is reported as -49 kJ/mol. The ΔG [4] was -47.3 kJ/mol, the ΔG [5] was -43.9 kJ/mol and the ΔG [6] was -34.3 kJ/mol. It also gave an EC50 [7] of 0.02 mg/L, an EC50 [8] of 0.013 mg/L and an EC50 [9] of 0.301 mg/L. The Kd [10] was 3.7 nM, the koff [10] was 0.00027 s⁻¹ and the kon [10] was 69100 M⁻¹ s⁻¹. It also gave a Kd [11] of 2.5 nM, a koff [11] of 0.00013 s⁻¹ and a kon [11] of 52000 M⁻¹ s⁻¹. The Kd [12] was 5.33 nM, the koff [12] was 0.000314 s⁻¹ and the kon [12] was 58900 M⁻¹ s⁻¹. For the same binder, the Kd [13] was 19.2 nM, the koff [13] was 0.000122 s⁻¹ and the kon [13] was 6350 M⁻¹ s⁻¹. For the same binder, the Kd [14] was 1010 nM, the ΔG [15] was -48.5 kJ/mol and the ΔG [16] was -49 kJ/mol. The Kd [17] was 2.98 nM, the koff [17] was 0.00012 s⁻¹ and the kon [17] was 40300 M⁻¹ s⁻¹. It also gave a ΔG [18] of -28 kJ/mol, a Kd [19] of 2.59 nM and a koff [19] of 9.49e-05 s⁻¹. The kon [19] was 36600 M⁻¹ s⁻¹, the binding result [20] was “no binding” and the binding result (plasminogen) was “no binding (tested: 50 µg/ml)”. B1: no binding (tested: 50 µg/ml) [21]; no binding (tested: 50 µg/ml) (factor XII); no binding (tested: 50 µg/ml) (β2-glycoprotein I). It also gave a Kd [22] of 12000 nM, a koff [22] of 0.29 s⁻¹ and a kon [22] of 24200 M⁻¹ s⁻¹. The koff [23] was 0.0702 s⁻¹ and the kon [23] was 69600 M⁻¹ s⁻¹.

B2: 5B10 monoclonal antibody (antibody, V domains shown)
VH: QIQLVQSGPELKKPGETVKISCKASGYTFTNYGMNWVKQAPGKGLKWMGWINTYTGEPTYADDFKGRFAFSLETSASTAYLQINNLKNEDMATYFCARGGYYYGNNYEAYWGQGTLVTVSA
VL: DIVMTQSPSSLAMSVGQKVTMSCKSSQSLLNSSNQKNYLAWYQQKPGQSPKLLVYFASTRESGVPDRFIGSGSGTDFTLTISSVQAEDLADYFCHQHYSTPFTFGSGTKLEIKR
notes: also called clone 5B10
B2 showed an EC50 [7] of 0.038 mg/L, an EC50 [8] of 0.031 mg/L and an EC50 [9] of 0.038 mg/L. B2: no binding [24].
